Results on 1 substance are retold here after US20180010135.

The data set deals with phiC31 integrase (Streptomyces phage phiC31?). Briefly: cell_activity. To be noted: in E. coli, 1% L-arabinose, 32 C, 60-120 min; intramolecular attB x attP recombination giving minicircle.

Bounds are passed on as bounds.

In the case of “phiC31 attB x attP sites flanking expression cassette (pBAD.phiC31.RHB)”, the activity (% recombination) was > 97.
